{"source": "paper PMC11264262", "origin": "cited, not measured here", "key": {"His200": {"molecular_target": "His200 (UniProt position 200, RKGTVHDTALT)"}, "Glu73": {"molecular_target": "Glu73 (UniProt position 107, IFSNREGKLPG)", "conditions": "folded protein"}}}
{"substance": "Homoprotocatechuate 2,3-dioxygenase (HPCD) (Brevibacterium fuscum (inferred; organism not stated in the article))", "values": [{"measurement": "pKa", "setting": "His200", "value": "ca. 7.65"}]}
{"substance": "Barnase (Bacillus amyloliquefaciens (inferred; organism not stated in the article))", "values": [{"measurement": "pKa", "setting": "Glu73", "value": 2.1}]}
